Results as given in patent CN117425675A (XINSHI BIOPHARMACEUTICAL CO LTD, dated 2024).

Columns and labels:
[1] = molecular target: T1, human TNFR2 expressed on cells (stably overexpressed on HEK293T, CHO-K1 or Jurkat cells; endogenous on THP1) (human (Homo sapiens), UniProt P20333 23-461); assay: binding to cells stably overexpressing human TNFR2 (flow cytometry / imaging; text says HEK293T, table title says CHO-K1)
T1 construct: also called 人TNFR2; hTNFR2
T1 sequence: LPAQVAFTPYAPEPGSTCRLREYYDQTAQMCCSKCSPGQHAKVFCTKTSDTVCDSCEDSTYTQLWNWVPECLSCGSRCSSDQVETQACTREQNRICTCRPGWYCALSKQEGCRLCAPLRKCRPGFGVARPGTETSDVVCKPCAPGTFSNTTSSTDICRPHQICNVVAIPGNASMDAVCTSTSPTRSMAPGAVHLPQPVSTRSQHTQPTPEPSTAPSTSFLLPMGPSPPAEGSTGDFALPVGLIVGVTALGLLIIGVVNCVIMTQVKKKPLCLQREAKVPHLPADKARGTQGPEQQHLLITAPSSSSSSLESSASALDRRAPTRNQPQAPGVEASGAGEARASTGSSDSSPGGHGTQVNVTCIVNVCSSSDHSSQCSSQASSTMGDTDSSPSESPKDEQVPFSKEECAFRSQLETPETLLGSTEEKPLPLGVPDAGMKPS

[2] = molecular target: T2, human TNFR1 stably overexpressed on CHO-K1 cells (human (Homo sapiens), UniProt P19438 30-455); assay: flow cytometry on CHO-K1 cells stably overexpressing human TNFR1
T2 construct: also called 人TNFR1; TNFRSF1A
T2 sequence: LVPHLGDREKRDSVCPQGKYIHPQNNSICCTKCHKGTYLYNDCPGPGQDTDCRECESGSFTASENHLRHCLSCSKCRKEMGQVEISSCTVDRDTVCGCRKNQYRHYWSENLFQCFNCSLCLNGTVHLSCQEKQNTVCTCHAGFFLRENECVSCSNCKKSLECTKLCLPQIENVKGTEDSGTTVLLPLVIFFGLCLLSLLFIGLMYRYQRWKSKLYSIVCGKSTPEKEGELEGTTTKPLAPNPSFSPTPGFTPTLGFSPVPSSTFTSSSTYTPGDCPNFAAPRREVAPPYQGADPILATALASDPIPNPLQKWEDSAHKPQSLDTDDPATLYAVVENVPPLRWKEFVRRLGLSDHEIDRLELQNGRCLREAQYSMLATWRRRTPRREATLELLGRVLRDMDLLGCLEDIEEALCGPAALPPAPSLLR

[3] = molecular target: T3, mouse TNFR2 stably overexpressed on HEK293T cells (mouse (Mus musculus), UniProt P25119 23-474); assay: flow cytometry on HEK293T cells stably overexpressing mouse TNFR2
T3 construct: also called 鼠TNFR2
T3 sequence: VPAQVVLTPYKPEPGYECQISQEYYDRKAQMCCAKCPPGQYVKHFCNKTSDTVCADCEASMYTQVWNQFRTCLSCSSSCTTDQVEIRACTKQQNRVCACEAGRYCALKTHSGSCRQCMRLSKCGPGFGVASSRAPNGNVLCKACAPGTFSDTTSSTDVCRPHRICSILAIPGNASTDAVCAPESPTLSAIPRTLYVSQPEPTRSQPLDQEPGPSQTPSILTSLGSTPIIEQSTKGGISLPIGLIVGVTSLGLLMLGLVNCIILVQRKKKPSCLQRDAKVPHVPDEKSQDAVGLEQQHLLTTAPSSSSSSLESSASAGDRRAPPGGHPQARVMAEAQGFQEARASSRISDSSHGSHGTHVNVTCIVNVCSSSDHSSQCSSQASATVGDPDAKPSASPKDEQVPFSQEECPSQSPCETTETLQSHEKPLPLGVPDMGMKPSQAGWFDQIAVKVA

B1: R2_mAb-1 (antibody, V domains shown)
VH: QVQLVESGGGVVQPGRSLRLSCAASGFTFSSYGMHWVRQAPGKGLEWVAVIWFDEDNKDYADSVKGRFTISRDNSKNTLYLQMSSLRAEDTAVYYCARDNDILTGYYYYYGMDVWGQGTTVTVSS
VL: DIQLTQSPSFLSASVGDRVTITCRASQDISSYLAWYQQKPGKAPKLLIYAASTLQSGVPSRFSGSGSGTEFTLTISSLQPEDFATYYCQQLNSYPPTFGQGTKVEIK
notes: The VH/VL pair is read from parallel lists; also called R2-1
Which results are given for B1?
EC50 [1]: 0.1 nM; binding result [2]: no binding (tested: 10μg/mL); binding result [3]: no binding (tested: 10μg/mL)

B2: R2_mAb-2 (antibody, V domains shown)
VH: QVQLVQSGPEVKKPGASVKVSCKASGYTFTNYGISWVRQAPGQGLEWMGWINAYNGNTNYAQKLQGRVTMTTDTSTSTAYMELRSLRSDDTAVYYCARDGGYGSGTYHNDYYYYYGMDVWGQGTTVTVSS
VL: EIVLTQSPDFQSMTPEEKVTITCRASQSIGSNLHWYQQKPDQSPKLLIKFASQSISGVPSRFSGSGSGTDFTLTINSLEAEDAATYYCHQSSSLPFTFGPGTKVDIK
notes: also called R2-2
With B2 as the binder, how does the EC50 [1] read?
Its EC50 is 0.35 nM.

Does B2 bind [2]?
Result: no binding (tested: 10μg/mL)

Does B2 bind [3]?
Result: no binding (tested: 10μg/mL)

B3: R2_mAb-3 (antibody, V domains shown)
VH: QVQLQESGPGLVKPSETLSLTCTVSGGSISSYYWSWIRQAPGKGLEWIGYIYYSGSTNYNPSLKSRVTISVDTSKNQFSLKLSSVTAADTAVYYCARDDGSSDYGMDVWGQGTTVTVSS
VL: AIQLTQSPSSLSASVGDRVTITCRASQGISSALAWYQQKPGKAPKLLIYDASSLESGVPSRFTGSGTDFTLTISSLQPEDFATYYCQQFNNYMYTFGQGTKLEIK
notes: also called R2-3
How did the EC50 [1] turn out when B3 was run?
Its EC50 is 0.38 nM.

Does B3 bind [2]?
Result: no binding (tested: 10μg/mL)

Does B3 bind [3]?
Result: no binding (tested: 10μg/mL)

B4: R2_mAb-4 (antibody, V domains shown)
VH: QVQLVQSGAEVRKPGASVKVSCKASGYTFTSYSVTWVRQAPGQGLEWMGWINAFSGNTHYAQNLQDRVTMTTDTSTSTAYMELRSLRSDDTAVYYCAREEGSGSYEDYYGMDVWGQGTTVTVSS
VL: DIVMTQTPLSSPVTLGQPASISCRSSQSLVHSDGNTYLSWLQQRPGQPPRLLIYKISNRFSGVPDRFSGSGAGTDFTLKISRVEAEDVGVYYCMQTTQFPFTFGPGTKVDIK
notes: The mouse IgG2a chimera was used only in the tumour models; also called R2-4
Which results are given for B4?
EC50 [1]: 0.11 nM; binding result [2]: no binding (tested: 10μg/mL); binding result [3]: no binding (tested: 10μg/mL)

B5: R2_mAb-5 (antibody, V domains shown)
VH: QVQLVQSGAEVKKPGASVTVSCKASGYTFSTYGIIWVRQAPGQGLEWMGWISAFNGNANSAQKLQDRVTMTTDTSTSTAYMELRSLRSDDTAVYYCARGEDFFDYWGQGTLVTVSS
VL: DIVMTQTPLSSPVTLGQPASISCRSSQSLVHSDGNTYLSWLQQRPGQPPRLLIYKVSSRFSGVPDRFSGSGAGTDFTLKISRVEAEDVGVYYCTQSTQFPFTFGRGTKLEIK
notes: The mouse IgG2a, IgG1 and IgG1 D265A chimeras were used only in the tumour models; also called R2-5
For B5, which EC50 [1] is on record?
Its EC50 is 0.1 nM.

Does B5 bind [2]?
Result: no binding (tested: 10μg/mL)

Does B5 bind [3]?
Result: no binding (tested: 10μg/mL)

B6: R2_mAb-6 (antibody, V domains shown)
VH: QVQLVQSGAEVKKPGASVKVSCKASGYTFLSYGLSWVRQAPGQGLEWMGWINAYNGNTNYAQNLQDRVTMTTDTSTSTAYMELRSLRSDDMAVYYCARWDILTAYYSSDAFDIWGQGTMVTVSS
VL: DIVMTQTPLSSPVTLGQPASISCRSSQSLVHSDGNTYLNWLQQRPGQPPRLLIYKVSNRFSGVPDRFSGSGAGTDFTLKISRVEAEDVGVYYCTQTTQFPITFGQGTRLEIK
notes: also called R2-6
Which results are given for B6?
EC50 [1]: 0.14 nM; binding result [2]: no binding (tested: 10μg/mL); binding result [3]: no binding (tested: 10μg/mL)
